For experiment [1], the target named is T1, recombinant human TNFR2-hFc protein (human, UniProt P20333 23-257).
T1 construct: also called hTNFR2-Fc; human TNFR2-Fc; not shown: human Fc
T1 sequence: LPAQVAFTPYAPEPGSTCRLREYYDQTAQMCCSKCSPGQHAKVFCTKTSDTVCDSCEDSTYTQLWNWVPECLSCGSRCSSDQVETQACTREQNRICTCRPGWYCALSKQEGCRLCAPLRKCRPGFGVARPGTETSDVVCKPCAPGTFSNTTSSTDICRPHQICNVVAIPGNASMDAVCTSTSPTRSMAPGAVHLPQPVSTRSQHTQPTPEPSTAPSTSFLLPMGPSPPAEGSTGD
The experiment is described as follows: flow cytometry; hTNFR2-Fc binding to scFv displayed on yeast; one site binding fit (FIG. 4).

The target of experiment [2] is T1, recombinant human TNFR2-hFc protein. Description: flow cytometry; hTNFR2-Fc binding to scFv displayed on yeast (FIG. 4).
For experiment [3], the target named is T2, Human TNFR2 expressed on cells (CHO-hTNFR2 cells) (human, UniProt P20333 23-461).
T2 construct: also called CHO cells overexpressing human TNFR2; human TNFR2 reporter cells (HEK293)
T2 sequence: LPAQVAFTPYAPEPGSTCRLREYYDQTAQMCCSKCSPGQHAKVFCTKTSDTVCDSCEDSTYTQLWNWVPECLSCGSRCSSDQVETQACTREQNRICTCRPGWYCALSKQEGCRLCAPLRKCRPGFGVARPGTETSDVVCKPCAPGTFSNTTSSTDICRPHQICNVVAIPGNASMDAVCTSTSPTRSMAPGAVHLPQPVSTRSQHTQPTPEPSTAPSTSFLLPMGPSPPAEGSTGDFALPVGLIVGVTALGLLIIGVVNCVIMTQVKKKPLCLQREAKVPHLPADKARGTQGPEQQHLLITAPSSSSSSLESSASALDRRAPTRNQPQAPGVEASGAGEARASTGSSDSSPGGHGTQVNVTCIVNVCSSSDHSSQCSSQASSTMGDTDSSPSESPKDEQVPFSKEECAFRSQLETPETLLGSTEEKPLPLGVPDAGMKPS
Description: flow cytometry; soluble scFv inhibiting TNF (1 nM) binding to CHO-hTNFR2 cells (FIGS. 5A-5B).

Experiment [4] addresses T1, recombinant human TNFR2-hFc protein. The experiment is described as follows: flow cytometry; hTNFR2-Fc binding to scFv displayed on yeast; one site binding fit (FIG. 6A).
The target in experiment [5] is T2, Human TNFR2 expressed on cells …. The experiment is described as follows: flow cytometry; IgG binding to CHO-hTNFR2 cells; four parameter fit (FIG. 10).
Experiment [6] has the same target. Description: flow cytometry; IgG inhibiting TNF (1 nM) binding to CHO-hTNFR2 cells (FIG. 12).
Experiment [7] shares this target. The experiment is described as follows: flow cytometry; IgG inhibiting TNF (1 nM) binding to CHO-hTNFR2 cells (FIG. 13A); FIG. 13A.
Experiment [8] addresses T3, recombinant human TNFR2-His (human, UniProt P20333 23-257).
T3 construct: also called hTNFR2-His; TNFR2-His protein; not shown: His tag
T3 sequence: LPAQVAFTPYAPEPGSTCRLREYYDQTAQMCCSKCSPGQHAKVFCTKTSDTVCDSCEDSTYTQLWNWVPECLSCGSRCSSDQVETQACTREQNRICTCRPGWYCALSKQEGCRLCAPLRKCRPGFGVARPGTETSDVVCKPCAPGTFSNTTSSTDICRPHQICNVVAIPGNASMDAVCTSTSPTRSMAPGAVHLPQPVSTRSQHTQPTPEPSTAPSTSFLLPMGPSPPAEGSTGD
Description: biolayer interferometry (BLI); IgG1 and TNFR2-His protein (FIG. 11).

Experiment [9] deals with T2, Human TNFR2 expressed on cells …. The experiment is described as follows: flow cytometry; IgG inhibiting TNF (1 nM) binding to CHO-hTNFR2 cells (FIG. 13B); FIG. 13B.
Experiment [10] deals with T3, recombinant human TNFR2-His. The experiment is described as follows: flow cytometry; hTNFR2-His binding to scFv displayed on yeast (FIG. 8).
In experiment [11] the target is T1, recombinant human TNFR2-hFc protein. Description: flow cytometry; hTNFR2-Fc binding to scFv displayed on yeast; one site binding fit (FIG. 6B); FIG. 6B.
Experiment [12] deals with T2, Human TNFR2 expressed on cells …. Description: flow cytometry; soluble scFv inhibiting TNF (1 nM) binding to CHO-hTNFR2 cells (FIG. 7).

B1: UC1.1 (S4-2 1B5-1D9) scFv (scFv)
scFv: QVQLLESGGGLVQPGGSLRLSCAASGFSFTSYAMTWVRQAPGKGLEWVSGISGGGAATFYADSVKGRFTISRDNSKNTLYLQMNSLRAEDTAVYYCARQSQYVGGFDYWGQGTLVTVSSASSGGSTSGSGKPGSGEGSSGSARQSVLTQPPSVSGAPGQRVTISCTGSSSNIGAGYGVHWYQQLPGTAPKLLIHGNTNRPSGVPDRFSGFKSGTSASLAITGLQAEDEADYYCQSYDSSLSGWVFGGGTKLTVLG
Take B1: the Kd in [1] stood at 2.59 nM; in [4], 2.87 nM. The “fold higher affinity (vs parental scFv)” value in [2] is approximately 5 fold. This molecule registered an IC50 in experiment [3] of 10.7 nM.

B2: UC2.3-IgG1 (antibody, V domains shown)
VH: QVQLLESGGGLVQPGGSLRLSCAASGFTFSTYAMSWIRQAPGKGLEWVSIISDGGDATVYADSVKGRFTISRDNSKNTLYLQMNSLRAEDTAVYYCARDGTSAAAFDSWGQGTLVTVSS
VL: DIQMTQSPSSLSASVGDRVTITCQASQDITNFLNWYQQKPGKAPKLLIYDASTLQTGVPSRFSGSGSGTDFTFTISSLQPEDIATYYCQQSDSYPITFGQGTKVEIKR
notes: Full-length human IgG1; also called anti-human TNFR2 IgG UC2.3
Molecule B2 displayed a concentration giving a half-maximal response (EC50) in experiment [5] of 3.4 nM. In addition, the IC50 in experiment [6] came to 12.4 nM; in experiment [7], 48 nM.

B3: UC2.3.8-IgG1 (antibody, V domains shown)
VH: QVQLLESGGGLVQPGGSLRLSCAASGFTFSTYAMSWIRQAPGKGLEWVSIISDGGDATVYADSVKGRFTISRDNNRNTLYLQMNSLRAEDTAVYYCARDGTSAAAFDSWGQGTLVTVSS
VL: DIQMTQSPSSLSASVGDRVTITCQASQDITNFLNWYQQKPGKAPKLLIYDASRRRAGVPSRFSGSGSGTDFTFTISSLQPEDIATYYCQQSDSYPITFGQGTKVEIKR
notes: Full-length human IgG1; UC2.3.3 heavy chain combined with UC2.3.7 light chain; also called anti-human TNFR2 IgG UC2.3.8
B3: the Kd in experiment [8] was 0.344 nM. In experiment [9], this molecule came in with an IC50 of 0.088 nM.

B4: UC2.3.3-IgG1 (antibody, V domains shown)
VH: QVQLLESGGGLVQPGGSLRLSCAASGFTFSTYAMSWIRQAPGKGLEWVSIISDGGDATVYADSVKGRFTISRDNNRNTLYLQMNSLRAEDTAVYYCARDGTSAAAFDSWGQGTLVTVSS
VL: DIQMTQSPSSLSASVGDRVTITCQASQDITNFLNWYQQKPGKAPKLLIYDASTLQTGVPSRFSGSGSGTDFTFTISSLQPEDIATYYCQQSDSYPITFGQGTKVEIKR
notes: Full-length human IgG1; also called anti-human TNFR2 IgG UC2.3.3
With B4, the equilibrium dissociation constant (Kd) in experiment [8] was determined as 0.573 nM. The figures for the IC50 in experiment [7] and in experiment [9] were 0.89 nM and 0.68 nM, respectively.

B5: UC2-IgG1 (antibody, V domains shown)
VH: QVQLLESGGGLVQPGGSLRLSCAASGFTFSTYAMSWVRQAPGKGLEWVSIISDGGDATFYADSVKGRFTISRDNSKNTLYLQMNSLRAEDTAVYYCARDGTSAAAFDSWGQGTLVTVSS
VL: DIQMTQSPSSLSASVGDRVTITCQASQDITNFLNWYQQKPGKAPKLLIYDASTLQTGVPSRFSGSGSGTDFTFTISSLQPEDIATYYCQQSDSYPITFGQGTKVEIKR
notes: Full-length human IgG1; also called anti-human TNFR2 IgG UC2
For the molecule B5, the EC50 in [5] amounted to 97.9 nM.

B6: UC2.3.7-IgG1 (antibody, V domains shown)
VH: QVQLLESGGGLVQPGGSLRLSCAASGFTFSTYAMSWIRQAPGKGLEWVSIISDGGDATVYADSVKGRFTISRDNSKNTLYLQMNSLRAEDTAVYYCARDGTSAAAFDSWGQGTLVTVSS
VL: DIQMTQSPSSLSASVGDRVTITCQASQDITNFLNWYQQKPGKAPKLLIYDASRRRAGVPSRFSGSGSGTDFTFTISSLQPEDIATYYCQQSDSYPITFGQGTKVEIKR
notes: Full-length human IgG1; also called anti-human TNFR2 IgG UC2.3.7
Consider B6, for which the Kd in experiment [8] came to 17.1 nM. In experiment [7], this molecule came in with an IC50 of 8.69 nM.

B7: UC2.3 (S4-2 1D10-1G9) scFv (scFv)
scFv: QVQLLESGGGLVQPGGSLRLSCAASGFTFSTYAMSWIRQAPGKGLEWVSIISDGGDATVYADSVKGRFTISRDNSKNTLYLQMNSLRAEDTAVYYCARDGTSAAAFDSWGQGTLVTVSSASSGGSTSGSGKPGSGEGSSGSARDIQMTQSPSSLSASVGDRVTITCQASQDITNFLNWYQQKPGKAPKLLIYDASTLQTGVPSRFSGSGSGTDFTFTISSLQPEDIATYYCQQSDSYPITFGQGTKVEIKR
For B7, the Kd in [1] worked out at 8.88 nM; in experiment [11] it was 8.16 nM. Further, the “fold higher affinity (vs parental scFv)” value in [2] was approximately 5 fold. The EC50 in [10] amounted to 33.9 nM. Also, the IC50 in experiment [3] turned out to be 6.59 nM; in [12], 4.85 nM.

For the origin of these results see patent publication US20220281990A1 (MERRIMACK PHARMACEUTICALS, published 2022).
